B1: E. coli Fur (ferric uptake regulator) purified from ydiU knockout E. coli, without UMPylation (natural protein, UniProt P0A9A9 1-148, looked up)
chain: MTDNNTALKKAGLKVTLPRLKILEVLQEPDNHHVSAEDLYKRLIDMGEEIGLATVYRVLNQFDDAGIVTRHNFEGGKSVFELTQQHHHDHLICLDCGKVIEFSDDSIEARQREIAAKHGIRLTNHSLYLYGHCAEGDCREDEHAHEGK
notes: Ferric uptake regulator Fur, E. coli K-12 substrain MG1655; fur gene amplified from genomic DNA and cloned into pGL01 (modified pET15b with a PPase cleavage site); also called Fur^dYdiU; native Fur; source: E. coli BL21(DE3) ydiU knockout strain, purified (Ni-NTA, His tag removed by PPase, Superdex 200)
B2: Fur box DNA (dsDNA)
DNA 1: GATAATGATAATGATAATGATAATGATAATGA
DNA 2: TCATTATCATTATCATTATCATTATCATTATC

Assays:
[1] = molecular target: the molecule itself; test: SEC; 100 ug protein on a Superdex 200 column; a 53-kDa protein and a 22-kDa protein run under the same conditions as controls
[2] = molecular target: T1, Fur (native, not UMPylated) (Escherichia coli K-12 substrain MG1655, UniProt P0A9A9 1-148); test: EMSA; shift at Fur:DNA molar ratio above 1; no metal addition stated; DNA annealed in 10 mM Tris-HCl pH 7.5, 150 mM NaCl; binding buffer not stated; 20 nM DNA, 37 C 10 min (Methods) vs 10 nmol DNA, 30 C 10 min (Fig. 4 legend); 6%; settings: protein: recombinant; tags: His tag removed with PPase (pGL01); chain copies: 2; blunt
T1 sequence: B1 chain

| Binder | stoichiometry N [1] | binding result [2] |
| --- | --- | --- |
| B1 | 2 | – |
| B2 | – | binds |
